Data as given in US20180355064A1 (GLENMARK PHARMACEUTICALS S A, published 2018).

Molecular target: T1, human CD3 epsilon on HPB-ALL cells (human, UniProt P07766 23-207)
T1 construct: whole, on cells; also called human CD3 epsilon positive T cell tumour line
Experiment: FACS, median fluorescence intensity on HPB-ALL cells
Experimental: HPB-ALL cells (DSMZ, Braunschweig, Germany, Cat. No: ACC483) were used as CD3 positive cell line for FACS staining. […] After washing, cells were incubated with a 1/200 dilution of anti-Human Fc-PE (EBioscience, Vienna, Austria) for 45 min on ice. Cells were then washed again and resuspended in 200 ul FACS buffer.

B1: humanized OKT3 prototype antibody VH/VL (antibody, human IgG1, kappa, V domains shown)
VH: EVQLVESGGGLVQPGGSLRLSCAASGYTFTRYTIHWVRQAPGKGLEWVAYINPSRGYTRYADSVKGRFTISADTSKNTAYLQMNSLRAEDTAVYYCARYYDDHYCLDYWGQGTLVTVSS
VL: DIQMTQSPSSLSASVGDRVTITCRASSSVSYVAWYQQKPGKAPKLLIYDTSKLYSGVPSRFSGSRSGTDFTLTISSLQPEDFATYYCQQWSSNPPTFGQGTKVEIKR
binding result: no binding
